Paper PMC5773583, “Redundancy of protein disulfide isomerases in the catalysis of the inactivating disulfide switch in A Disintegrin and Metalloprotease 17” (Scientific Reports, 2018)
Residue numbers refer to the chain shown, from its start. Bridge positions count the residues as written; N and C are the ends.

T1: protein disulfide isomerase PDIA3 (human, UniProt P30101 25-505)
T1 construct: mature human PDIA3 (MW 56.6 kDa), cloned into pET28; Monomeric by SEC-MALS; also called Erp57
T1 sequence (looked up): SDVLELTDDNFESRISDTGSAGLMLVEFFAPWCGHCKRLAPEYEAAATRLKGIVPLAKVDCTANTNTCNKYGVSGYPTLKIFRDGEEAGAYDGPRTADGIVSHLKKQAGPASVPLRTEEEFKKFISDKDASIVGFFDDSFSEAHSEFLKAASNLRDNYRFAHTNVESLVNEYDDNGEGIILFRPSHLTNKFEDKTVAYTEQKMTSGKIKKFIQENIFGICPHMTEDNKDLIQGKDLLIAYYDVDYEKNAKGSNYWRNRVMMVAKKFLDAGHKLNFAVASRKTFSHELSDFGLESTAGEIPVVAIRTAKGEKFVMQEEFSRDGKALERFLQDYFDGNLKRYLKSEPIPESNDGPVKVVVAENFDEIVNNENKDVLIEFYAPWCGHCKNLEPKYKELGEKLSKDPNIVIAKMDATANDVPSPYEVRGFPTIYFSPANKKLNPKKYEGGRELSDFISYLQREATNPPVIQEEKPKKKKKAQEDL

T2: PDIA6 C58S TRAP mutant (human, UniProt Q15084 20-440, C58S)
T2 construct: mature human PDIA6 with C58S (second cysteine of the CGHC motif of the a domain), in pET28
T2 sequence (looked up): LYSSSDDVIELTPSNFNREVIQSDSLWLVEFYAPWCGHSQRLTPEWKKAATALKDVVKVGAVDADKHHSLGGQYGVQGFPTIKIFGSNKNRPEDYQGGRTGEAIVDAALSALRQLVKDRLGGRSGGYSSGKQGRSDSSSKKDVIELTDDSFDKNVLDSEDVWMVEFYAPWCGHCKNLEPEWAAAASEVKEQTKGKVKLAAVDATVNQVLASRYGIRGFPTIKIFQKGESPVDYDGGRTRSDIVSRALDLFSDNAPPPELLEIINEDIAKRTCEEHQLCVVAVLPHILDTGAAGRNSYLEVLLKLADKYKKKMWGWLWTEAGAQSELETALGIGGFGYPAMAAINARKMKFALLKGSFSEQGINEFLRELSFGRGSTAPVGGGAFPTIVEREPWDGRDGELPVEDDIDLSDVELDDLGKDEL

T3: PDIA6 C193S TRAP mutant (human, UniProt Q15084 20-440, C193S)
T3 construct: mature human PDIA6 with C193S (second cysteine of the CGHC motif of the a' domain), in pET28
T3 sequence (looked up): T2 sequence (looked up) with S39C, C174S

T4: PDIA6 double TRAP mutant (2 TRAP) C58S C193S (human, UniProt Q15084 20-440, C58S | C193S)
T4 construct: mature human PDIA6 with C58S and C193S, in pET28; also called PDIA6 C58S C193S; PDIA6_2 TRAP
T4 sequence (looked up): T2 sequence (looked up) with C174S

T5: PDIA6 C55S C58S mutant (human, UniProt Q15084 20-440, C55S | C58S)
T5 construct: mature human PDIA6 with both cysteines of the a domain exchanged (C55S, C58S), in pET28
T5 sequence (looked up): T2 sequence (looked up) with C36S

T6: PDIA6 inverse TRAP mutant C55S C190S (human, UniProt Q15084 20-440, C55S | C190S)
T6 construct: mature human PDIA6 with the N-terminal cysteines of both CGHC motifs exchanged (C55S, C190S), in pET28; also called PDIA6 C55S C190S
T6 sequence (looked up): T2 sequence (looked up) with C36S, S39C, C171S

B1: open membrane-proximal domain (opMPD) of A Disintegrin and Metalloprotease 17 (ADAM17) (domain or fragment, UniProt P78536 581-642, looked up)
chain: FCEREQQLESCACNETDNSCKVCCRDLSGRCVPYVDAEQKNLFLRKGKPCTVGFCDMNGKCE
modifications: disulfide 20-50, 55-61; also: labelled on amines with RED-NHS dye
notes: membrane-proximal domain of ADAM17, open isomer, recombinant, 9.9 kDa; also called open conformation of the MPD
B2: closed membrane-proximal domain (clMPD) of A Disintegrin and Metalloprotease 17 (ADAM17) (domain or fragment, UniProt P78536 581-642, looked up)
chain: B1 chain
modifications: disulfide 20-55, 50-61; also: labelled on amines with RED-NHS dye
notes: membrane-proximal domain of ADAM17, closed disulfide isomer; it is the disulfide isomer of m9 and probably carries the same tag; also called closed MPD; closed isoform
B3: protein disulfide isomerase PDIA6 (enzyme, human, UniProt Q15084 20-440, looked up)
chain: T2 sequence (looked up) with S39C
notes: mature human PDIA6 (MW 48.8 kDa), cloned into pET28; Dimer in solution by SEC-MALS; also called Erp5; wild-type PDIA6

Tests used:
[1] = biological target: T7, protein disulfide isomerase PDIA1 (human, UniProt P07237 18-508); assay: MST; RED-NHS-labelled MPD constant at 20 nM, unlabelled PDI titrated (7.5 uM to 0.9537 nM, 1:2 series, 16 dilutions); PBS-P (PBS, 0.01% P20, pH 7.4), 25 °C; KD from the ligand-induced change of the initial fluorescence intensity; settings: both partners purified
T7 construct: mature human PDIA1 (MW 57.6 kDa), cloned into pET28; Monomeric by SEC-MALS

[2] = biological target: T1, protein disulfide isomerase PDIA3; assay: as above; settings: both partners purified
[3] = biological target: B3; assay: as above; settings: both partners purified
PDIA6 C58S TRAP mutant = biological target: T2, PDIA6 C58S TRAP mutant; assay: as above; settings: both partners purified
PDIA6 C193S TRAP mutant = biological target: T3, PDIA6 C193S TRAP mutant; assay: as above; settings: both partners purified
[4] = biological target: T4, PDIA6 double TRAP mutant (2 TRAP) C58S …; assay: as above; settings: both partners purified
PDIA6 C55S C58S mutant = biological target: T5, PDIA6 C55S C58S mutant; assay: as above; settings: both partners purified
[5] = biological target: T6, PDIA6 inverse TRAP mutant C55S C190S; assay: as above; settings: both partners purified
[6] = biological target: the molecule itself; assay: SEC-MALS; Superdex 200 10/300 GL, 0.5 ml/minute, PBS pH 7.4; 100–500 µg protein per analysis

T7 sequence (P07237 18-508): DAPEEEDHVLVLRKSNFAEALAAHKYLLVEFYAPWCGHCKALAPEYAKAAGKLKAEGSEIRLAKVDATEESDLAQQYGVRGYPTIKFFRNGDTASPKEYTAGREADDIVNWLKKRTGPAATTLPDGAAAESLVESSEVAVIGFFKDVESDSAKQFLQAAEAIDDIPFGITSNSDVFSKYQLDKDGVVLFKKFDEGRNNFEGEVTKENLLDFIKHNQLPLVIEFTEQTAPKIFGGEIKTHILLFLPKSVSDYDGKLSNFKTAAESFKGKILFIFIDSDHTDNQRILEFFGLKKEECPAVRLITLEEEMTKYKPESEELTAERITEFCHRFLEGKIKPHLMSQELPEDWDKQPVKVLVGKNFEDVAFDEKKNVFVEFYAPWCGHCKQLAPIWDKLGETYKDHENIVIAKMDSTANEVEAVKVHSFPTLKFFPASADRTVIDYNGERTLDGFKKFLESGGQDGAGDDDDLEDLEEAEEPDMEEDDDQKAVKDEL

Row | Kd [1] [nM] | Kd [2] [nM] | Kd [3] [nM] | Kd (PDIA6 C58S TRAP mutant) [nM] | Kd (PDIA6 C193S TRAP mutant) [nM] | Kd [4] [nM] | Kd (PDIA6 C55S C58S mutant) [nM] | Kd [5] [nM] | Binder | stoichiometry N [6]
1 | 158 | 90 | 93 | 141 | 142 | 192 | 138 | 115 | B1 | 
2 | 211 | 55 | 61 | 113 | 91 | 151 | 191 | 116 | B2 | 
3 |  |  |  |  |  |  |  |  | B3 | 2
